{"source": "paper PMC12368724", "about": "(2025)", "target": "GH1 β-glucosidase from Spodoptera frugiperda (Sfβgly), wild-type (Spodoptera frugiperda)", "test": "P100 buffer, pH 6, 5°C, protein sample 3 (SEC)"}
{"binder": "GH1 β-glucosidase from Spodoptera frugiperda (Sfβgly), wild-type (enzyme, Monomer given, self-associates to a C2 homodimer. Limits by convention from the 5CG0 entity; paper numbering = entity + 20 (precursor numbering) Monomer given, self-associates to a C2 homodimer. Limits by convention from the 5CG0 entity; paper numbering = entity + 20 (precursor numbering)) QQRRFPDDFLFGTATASYQIEGAWDEDGKGENIWDYMVHNTPEVIRDLSNGDIAADSYHNYKRDVEMMRELGLDAYRFSLSWARILPTGMANEVNPAGIAFYNNYIDEMLKYNITPLITLYHWDLPQKLQELGGFANPLISDWFEDYARVVFENFGDRVKMFITFNEPREICFEGYGSATKAPILNATAMGAYLCAKNLVTAHAKAYYLYDREFRPVQGGQCGITISVNWFGPATPTPEDEMAAELRRQGEWGIYAHPIFSAEGGFPKELSDKIAEKSAQQGYPWSRLPEFTEEEKAFVRGTSDFFGVNHYTAFLVSATERKGPYPVPSLLDDVDTGSWADDSWLKSASAWLTLAPNSIHTALTHLNNLYNKPVFYITENGWSTDESRENSLIDDDRIQYYRASMESLLNCLDDGINLKGYMAWSLMDNFEWMEGYIERFGLYEVDFSDPARTRTPRKAAFVYKHIIKHRVVDYEYEPETMVMTIDEGH", "values": [{"measurement": "Kd", "value": 5.5, "unit": "µM"}]}
